Results taken from patent US6972319B1, “Pituitary adenylate cyclase activating peptide (PACAP)receptor 3 (R3) agonists and their pharmacological methods of use” (priority 1999, dated 2005).
No end group written: not given here.

Molecular target: T1, PACAP-R3 (human, UniProt P41587 24-438)
T1 sequence (looked up): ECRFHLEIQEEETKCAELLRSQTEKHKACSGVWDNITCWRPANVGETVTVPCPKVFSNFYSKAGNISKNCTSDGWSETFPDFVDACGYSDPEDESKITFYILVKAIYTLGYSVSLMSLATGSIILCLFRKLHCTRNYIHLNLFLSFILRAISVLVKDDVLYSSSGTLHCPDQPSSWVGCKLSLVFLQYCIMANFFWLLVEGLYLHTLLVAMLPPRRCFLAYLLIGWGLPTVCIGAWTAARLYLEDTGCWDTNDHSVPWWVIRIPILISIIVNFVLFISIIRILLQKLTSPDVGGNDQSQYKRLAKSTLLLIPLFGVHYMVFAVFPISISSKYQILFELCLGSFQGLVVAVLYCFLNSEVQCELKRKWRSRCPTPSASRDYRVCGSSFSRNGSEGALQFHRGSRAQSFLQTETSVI
Test: cell-based or functional assay

| Binder | R3 EC50 | R3 Selectivity |
| --- | --- | --- |
| HSDAVFTDNYTRLRKQMAAKKYLNSIDNKR [R3P118] | 0.5 nM | 30 |
| HSDAVFTDNYTRLRKQMAAKKYLNSIKNVR [R3P150] | 0.8 nM | 50 |
| HSDAVFTDNYTRLRKQMAAKKYLNSIKNER [R3P137] | 0.3 nM | 100 |
| HSDAVFTDNYTRLRKQMAAKKYLNSIKNTR [R3P149] | 0.5 nM | 80 |
| HSDAVFTDNYTRLRKQMAAKKYLNSIVNKR [R3P131] | 0.3 nM | 70 |
| HSDAVFTDNYTRLRKQMAAKKYLNSIKNDR [R3P136] | 0.3 nM | 70 |
| HSDAVFTDNYTRLRKQMAAKKYLNSIGNKR [R3P121] | 1 nM | 50 |
| HSDAVFTDNYTRLRKQMAAKKYLNSISNKR [R3P129] | 1 nM | 50 |
| HSDAVFTDNYTRLRKQMAAKKYLNSITNKR [R3P130] | 1 nM | 40 |
| HSDAVFTDNYTRLRKQMAAKKYLNSIANKR [R3P116] | 1 nM | 20 |
| HSDAVFTDNYTRLRKQMAVKKYLNSIKNKR [R3P113] | 0.3 nM |  |
| HSDAVFTDNYTRLRKQMAAKKYLNSIKNMR [R3P143] | 0.2 nM | 30 |
| HSDAVFTDNYTRLRKQMAAKKYLNSIWNKR [R3P132] | 0.2 nM | 50 |
| HSDAVFTDNYTRLRKQMAYKKYLNSIKNKR [R3P115] | 6 nM | 50 |
| HSDAVFTDNYTRLRKQMAAKKYLNSIKNPR [R3P145] | 0.5 nM | 100 |
| HSDAVFTDNYTRLRKQMAAKKYLNSIKNKM [R3P163] | 0.2 nM |  |
| HSDAVFTDNYTRLRKQMAAKKYLNSIKNKK [R3P161] | 0.2 nM | 300 |
| HSDAVFTDNYTRLRKQMAAKKYLNSIKNAR [R3P134] | 0.4 nM |  |
| HSDAVFTDNYTRLRKQMASKKYLNSIKNKR [R3P111] | 3 nM | 300 |
| HSDAVFTDNYTRLRKQMAAKKYLNSIHNKR [R3P122] | 0.2 nM | 50 |
| HSDAVFTDNYTKLRKQLAAKKYLNDILNGGT [R3P11] | 3 nM | 3 |
| HSDAVFTDNYTRLRKQLAAKKYLNDIKKGGT [R3P12] | 0.5 nM | > 200 |
| HSDAVFTDNYTRLRKQMAAKKYLNSIKNKN [R3P164] | 0.3 nM | 300 |
| HSDAVFTDNYTRLRKQMAWKKYLNSIKNKR [R3P114] | 2 nM | 10 |
| HSDAVFTDNYTRLRKQMAAKKYLNSIQNKR [R3P127] | 0.5 nM | 600 |
| HSDAVFTDNYTRLRKQMAAKKYLNSIKNIR [R3P141] | 0.2 nM | 100 |

| Binder | R3 EC50 | R3 Selectivity |
| --- | --- | --- |
| HSDAVFTDNYTRLRKQMAAKKYLNSIKNQR [R3P146] | 0.3 nM | 100 |
| HSDAVFTDNYTRLRKQMAAKKYLNSIKNNR [R3P144] | 3 nM | 100 |
| HSDAVFTDNYTRLRKQMAAKKYLNSIKNKI [R3P160] | 0.2 nM | 500 |
| HSDAVFTDNYTRLRKQMAAKKYLNSIKNKD [R3P155] | 0.4 nM | 100 |
| HSDAVFTDNYTRLRKQMAAKKYLNSIRNKR [R3P128] | 0.3 nM | 200 |
| HSDAVFTDNYTRLRKQMAAKKYLNSIKNHR [R3P140] | 0.3 nM | 50 |
| HSDAVFTDNYTRLRKQMAAKKYLNSIKNGR [R3P139] | 0.4 nM | 50 |
| HSDAVFTDNYTRLRKQMAAKKYLNSIENKR [R3P119] | 0.5 nM | 30 |
| HSDAVFTDNYTRLRKQMAAKKYLNSIKNKA [R3P153] | 0.2 nM | 200 |
| HSDAVFTDNYTRLRKQMAAKKYLNSIKNRR [R3P147] | 0.2 nM | 500 |
| HSDAVFTDNYTRLRKQMAAKKYLNSIKNKG [R3P158] | 0.07 nM | 90 |
| HSDAVFTDNYTRLRKQMAAKKYLNSIMNKR [R3P124] | 0.2 nM |  |
| HSDAVFTDNYTRLRKQMAAKKYLNSINNKR [R3P125] | 2 nM | 30 |
| HSDAVFTDNYTRLRKQMAAKKYLNSIPNKR [R3P126] | 1 nM | 200 |
| HSDAVFTDNYTRLRKQMAAKKYLNSIKNSR [R3P148] | 0.3 nM | 100 |
| HSDAVFTDNYTRLRKQMAAKKYLNSIKNKE [R3P156] | 1 nM | 100 |
| HSDAVFTDNYTRLRKQMAAKKYLNSIKNKF [R3P157] | 0.3 nM | 170 |
| HSDAVFTDNYTRLRKQLAAKKYLNDIKK-NH2 [R3P13] | 5 nM | 33 |
| HSDAVFTENYTKLRKQLAAKKYLNDLKKGGTSWCEPGWCR [R3P19] | 1.4 nM | 30 |
| HSDAVFTDNYTRLRKQMAVKKYLNDLKKGGT [R3P14] | 17 nM | 3 |
| HSDAVFTDNYTRLRKQLAVKKYLNDIKKGGT [R3P21] | 0.3 nM | 60 |
| HSDAVFTDNYTRLRKQMAAKKYLNDIKKGGT [R3P20] | 1.4 nM | 230 |
| HSDAVFTDNYTRLRKQMAAKKYLNSIKNKH [R3P159] | 0.5 nM | 400 |
| HSDAVFTDNYTRLRKQMAAKKYLNSIFNKR [R3P120] | 0.2 nM | 50 |
| HSDAVFTDNYTRLRKQMAAKKYLNSIKNLR [R3P142] | 0.2 nM | 30 |
